Assay results: patent publication US20100169988A1 (published 2010)

B1: phosphoglycerate mutase 1 (enzyme, mouse, UniProt Q9DBJ1 1-254, looked up)
chain: MAAYKLVLIRHGESAWNLENRFSGWYDADLSPAGHEEAKRGGQALRDAGYEFDICFTSVQKRAIRTLWTVLDAIDQMWLPVVRTWRLNERHYGGLTGLNKAETAAKHGEAQVKIWRRSYDVPPPPMEPDHPFYSNISKDRRYADLTEDQLPSCESLKDTIARALPFWNEEIVPQIKEGKRVLIAAHGNSLRGIVKHLEGLSEEAIMELNLPTGIPIVYELDKNLKPIKPMQFLGDEETVRKAMEAVAAQGKVKK
notes: also called PGAM1_MOUSE
B2: Malate dehydrogenase; mitochondrial precursor (enzyme, mouse, UniProt P08249 25-338, looked up)
chain: AKVAVLGASGGIGQPLSLLLKNSPLVSRLTLYDIAHTPGVAADLSHIETRANVKGYLGPEQLPDCLKGCDVVVIPAGVPRKPGMTRDDLFNTNATIVATLTAACAQHCPEAMVCIIANPVNSTIPITAEVFKKHGVYNPNKIFGVTTLDIVRANTFVAELKGLDPARVNVPVIGGHAGKTIIPLISQCTPKVDFPQDQLATLTGRIQEAGTEVVKAKAGAGSATLSMAYAGARFVFSLVDAMNGKEGVVECSFVQSKETECTYFSTPLLLGKKGLEKNLGIGKITPFEEKMIAEAIPELKASIKKGEDFVKNMK
B3: Plasma membrane calcium-transporting ATPase 2 (PMCA2) (enzyme, mouse, UniProt Q9R0K7 1-1198, looked up)
chain: MGDMTNSDFYSKNQRNESSHGGEFGCTMEELRSLMELRGTEAVVKIKETYGDTEAICRRLKTSPVEGLPGTAPDLEKRKQIFGQNFIPPKKPKTFLQLVWEALQDVTLIILEIAAIISLGLSFYHPPGESNEGCATAQGGAEDEGEAEAGWIEGAAILLSVICVVLVTAFNDWSKEKQFRGLQSRIEQEQKFTVVRAGQVVQIPVAEIVVGDIAQIKYGDLLPADGLFIQGNDLKIDESSLTGESDQVRKSVDKDPMLLSGTHVMEGSGRMVVTAVGVNSQTGIIFTLLGAGGEEEEKKDKKAKQQDGAAAMEMQPLKSAEGGDADDKKKANMHKKEKSVLQGKLTKLAVQIGKAGLVMSAITVIILVLYFTVDTFVVNKKPWLTECTPVYVQYFVKFFIIGVTVLVVAVPEGLPLAVTISLAYSVKKMMKDNNLVRHLDACETMGNATAICSDKTGTLTTNRMTVVQAYVGDVHYKEIPDPSSINAKTLELLVNAIAINSAYTTKILPPEKEGALPRQVGNKTECGLLGFVLDLRQDYEPVRSQMPEEKLYKVYTFNSVRKSMSTVIKMPDESFRMYSKGASEIVLKKCCKILSGAGEARVFRPRDRDEMVKKVIEPMACDGLRTICVAYRDFPSSPEPDWDNENDILNELTCICVVGIEDPVRPEVPEAIRKCQRAGITVRMVTGDNINTARAIAIKCGIIHPGEDFLCLEGKEFNRRIRNEKGEIEQERIDKIWPKLRVLARSSPTDKHTLVKGIIDSTHTEQRQVVAVTGDGTNDGPALKKADVGFAMGIAGTDVAKEASDIILTDDNFSSIVKAVMWGRNVYDSISKFLQFQLTVNVVAVIVAFTGACITQDSPLKAVQMLWVNLIMDTFASLALATEPPTETLLLRKPYGRNKPLISRTMMKNILGHAVYQLTLIFTLLFVGEKMFQIDSGRNAPLHSPPSEHYTIIFNTFVMMQLFNEINARKIHGERNVFDGIFRNPIFCTIVLGTFAIQIVIVQFGGKPFSCSPLQLDQWMWCIFIGLGELVWGQVIATIPTSRLKFLKEAGRLTQKEEIPEEELNEDVEEIDHAERELRRGQILWFRGLNRIQTQIRVVKAFRSSLYEGLEKPESRTSIHNFMAHPEFRIEDSQPHIPLIDDTDLEEDAALKQNSSPPSSLNKNNSAIDSGINLTTDTSKSATSSSPGSPIHSLETSL
notes: also called AT2B2_MOUSE
B4: Clathrin coat assembly protein AP180 (Clathrin coat-associated protein AP180) (91 kDa synaptosomal-associated protein) (other, mouse, UniProt Q61548 1-901, looked up)
chain: MSGQTLTDRIAAAQYSVTGSAVARAVCKATTHEVMGPKKKHLDYLIQATNETNVNIPQMADTLFERATNSSWVVVFKALVTTHHLMVHGNERFIQYLASRNTLFNLSNFLDKSGSHGYDMSTFIRRYSRYLNEKAFSYRQMAFDFARVKKGADGVMRTMVPEKLLKSMPILQGQIDALLEFDVHPNELTNGVINAAFMLLFKDLIKLFACYNDGVINLLEKFFEMKKGQCKDALEIYKRFLTRMTRVSEFLKVAEQVGIDKGDIPDLTQAPSSLMETLEQHLNTLEGKKPGNNEGSGAPSPLSKSSPATTVTSPNSTPAKTIDTSPPVDIFATASAAAPVSSAKPSSDLLDLQPDFSGAAAGAAAPVVPPSGGATAWGDLLGEDSLAALSSVPCEAPISDPFAPEPSPPTTTTEPASASASTTTAVTAVTTEVDLFGDAFAASPGEAPAASEGATAPATPAPVAAALDACSGNDPFAPSEGSAEAAPELDLFAMKPPETSAPVVTPTASTAPPVPATAPSPAPTAVAATAATTTAAAAATTTATTSAAAATTAAAPPALDIFGDLFDSAPEVAAAPKPDAAPSIDLFGTDAFSSPPRGASPVPESSLTADLLSVDAFAAPSPASTASPAKAESSGVIDLFGDAFGSGASETQPAPQAVSSSSASADLLAGFGGSFMAPSTTPVTPAQNNLLQPSFEAAFGTTPSTSSSSSFDPSVFDGLGDLLMPTMAPSGQPAPVSMVPPSPAMAASKGLGSDLDSSLASLVGNLGISGTTSKKGDLQWNAGEKKLTGGANWQPKVTPATWSAGVPPQGTVPPTSSVPPGAGAPSVGQPGAGFGMPPSGTGMTMMSQQPVMFAQPMMRPPFGAAAVPGTQLSPSPTPATQSPKKPPAKDPLADLNIKDFL
notes: also called AP180_MOUSE; Clathrin coat assembly protein Aβ180
B5: ATP synthase e chain, mitochondrial (enzyme, mouse, UniProt Q06185 2-71, looked up)
chain: VPPVQVSPLIKFGRYSALIIGMAYGAKRYSYLKPRAEEERRIAAEEKKRLDELKRIERELAEAQDDSILK
notes: also called epsilon chain
B6: Neuronal membrane glycoprotein M6-b (M6b) (other, mouse, UniProt P35803 1-328, looked up)
chain: MKPAMETAAEENTEQSQERKVNSRAEMEIGRYHWMYPGSKNHQYRPVPNLGDRAGPLSSPGCFECCIKCLGGVPYASLVATILCFSGVALFCGCGHVALAGTVAILEQHFSTNTSDHALLSEVIQLMQYVIYGIASFFFLYGIILLAEGFYTTSAVKELHGEFKTTACGRCISGMFVFLTYVLGVAWLGVFGFSAVPVFMFYNIWSTCEVIKSPQSNGTSGVEQICVDVRQYGIIPWNAFPGKICGSALENICNTNEFYMSYHLFIVACAGAGATVIALIHFLMILSSNWAYLKDASKMQAYQDIKAKEEQELQDIQSRSKEQLNSYT
notes: also called Proteolipid protein PLP/dm-20
B7: Dynamin-1 (enzyme, mouse, UniProt P39053 1-867, looked up)
chain: MGNRGMEDLIPLVNRLQDAFSAIGQNADLDLPQIAVVGGQSAGKSSVLENFVGRDFLPRGSGIVTRRPLVLQLVNSTTEYAEFLHCKGKKFTDFEEVRLEIEAETDRVTGTNKGISPVPINLRVYSPHVLNLTLVDLPGMTKVPVGDQPPDIEFQIRDMLMQFVTKENCLILAVSPANSDLANSDALKIAKEVDPQGQRTIGVITKLDLMDEGTDARDVLENKLLPLRRGYIGVVNRSQKDIDGKKDITAALAAERKFFLSHPSYRHLADRMGTPYLQKVLNQQLTNHIRDTLPGLRNKLQSQLLSIEKEVDEYKNFRPDDPARKTKALLQMVQQFAVDFEKRIEGSGDQIDTYELSGGARINRIFHERFPFELVKMEFDEKELRREISYAIKNIHGIRTGLFTPDMAFETIVKKQVKKIREPCLKCVDMVISELISTVRQCTKKLQQYPRLREEMERIVTTHIREREGRTKEQVMLLIDIELAYMNTNHEDFIGFANAQQRSNQMNKKKTSGNQDEILVIRKGWLTINNIGIMKGGSKEYWFVLTAENLSWYKDDEEKEKKYMLSVDNLKLRDVEKGFMSSKHIFALFNTEQRNVYKDYRQLELACETQEEVDSWKASFLRAGVYPERVGDKEKASETEENGSDSFMHSMDPQLERQVETIRNLVDSYMAIVNKTVRDLMPKTIMHLMINNTKEFIFSELLANLYSCGDQNTLMEESAEQAQRRDEMLRMYHALKEALSIIGDINTTTVSTPMPPPVDDSWLQVQSVPAGRRSPTSSPTPQRRAPAVPPARPGSRGPAPGPPPAGSALGGAPPVPSRPGASPDPFGPPPQVPSRPNRAPPGVPSLGAWRLNSPQGKHENRAGKARL
notes: also called DYN1_MOUSE; Dynamin I
B8: 14-3-3 protein beta/alpha (Protein kinase C inhibitor protein 1) (KCIP-1) (other, mouse, UniProt Q9CQV8 1-246, looked up)
chain: MTMDKSELVQKAKLAEQAERYDDMAAAMKAVTEQGHELSNEERNLLSVAYKNVVGARRSSWRVISSIEQKTERNEKKQQMGKEYREKIEAELQDICNDVLELLDKYLILNATQAESKVFYLKMKGDYFRYLSEVASGENKQTTVSNSQQAYQEAFEISKKEMQPTHPIRLGLALNFSVFYYEILNSPEKACSLAKTAFDEAIAELDTLNEESYKDSTLIMQLLRDNLTLWTSENQGDEGDAGEGEN
notes: also called 14-3-3 β
B9: Phosphatidylethanolamine-binding protein (PEBP) (other, mouse, UniProt P70296 2-187, looked up)
chain: AADISQWAGPLCLQEVDEPPQHALRVDYAGVTVDELGKVLTPTQVMNRPSSISWDGLDPGKLYTLVLTDPDAPSRKDPKFREWHHFLVVNMKGNDISSGTVLSDYVGSGPPSGTGLHRYVWLVYEQEQPLSCDEPILSNKSGDNRGKFKVETFRKKYNLGAPVAGTCYQAEWDDYVPKLYEQLSGK
notes: also called PEBP1_MOUSE
B10: Fructose-bisphosphate aldolase A (Muscle-type aldolase) (Aldolase 1) (enzyme, mouse, UniProt P05064 2-364, looked up)
chain: PHPYPALTPEQKKELSDIAHRIVAPGKGILAADESTGSIAKRLQSIGTENTEENRRFYRQLLLTADDRVNPCIGGVILFHETLYQKADDGRPFPQVIKSKGGVVGIKVDKGVVPLAGTNGETTTQGLDGLSERCAQYKKDGADFAKWRCVLKIGEHTPSALAIMENANVLARYASICQQNGIVPIVEPEILPDGDHDLKRCQYVTEKVLAAVYKALSDHHVYLEGTLLKPNMVTPGHACTQKFSNEEIAMATVTALRRTVPPAVTGVTFLSGGQSEEEASINLNAINKCPLLKPWALTFSYGRALQASALKAWGGKKENLKAAQEEYIKRALANSLACQGKYTPSGQSGAAASESLFISNHAY
B11: Sodium/potassium-transporting ATPase alpha-2 chain precursor (Sodium pump 2) (Na+/K+ ATPase 2) (Alpha(+)) (enzyme)
chain: not shown
notes: also called AT1A2_MOUSE
B12: 2',3'-cyclic-nucleotide 3'-phosphodiesterase (CNPase) (enzyme, mouse, UniProt P16330 1-417, looked up)
chain: MNTSFTRKSHTFLPKLFFRKMSSSGAKEKPELQFPFLQDEDTVATLHECKTLFILRGLPGSGKSTLARLILEKYHDGTKMVSADAYKIIPGSRADFSEAYKRLDEDLAGYCRRDIRVLVLDDTNHERERLDQLFEMADQYQYQVVLVEPKTAWRLDCAQLKEKNQWQLSADDLKKLKPGLEKDFLPLYFGWFLTKKSSETLRKAGQVFLEELGNHKAFKKELRHFISGDEPKEKLELVSYFGKRPPGVLHCTTKFCDYGKAAGAEEYAQQEVVKRSYGKAFKLSISALFVTPKTAGAQVVLTDQELQLWPSDLDKPSASEGLPPGSRAHVTLGCAADVQPVQTGLDLLDILQQVKGGSQGEAVGELPRGKLYSLGKGRWMLSLTKKMEVKAIFTGYYGKGKPVPIHGSRKGGAMQIC
notes: also called CN37_MOUSE

Biological target: T1, APP-TAP-AICD (human, UniProt P05067 18-695)
Assay: streptavidin purification of APP-TAP-AICD from brain homogenate; LTQ-FT semiquantitative method, transgenic mouse 75 vs control mouse 72

B1 and B2 are the same in “probability that this protein is enriched” value: 0.86 for the first, 0.86 for the second.

Going from B3 to B4, the “probability that this protein is enriched” value falls from 0.86 to 0.85.

First: B5
Second: B6
The “probability that this protein is enriched” value of the first is higher: 0.88 for the first, 0.87 for the second.

First: B7
Second: B8
The “probability that this protein is enriched” value of the first is lower: 0.82 for the first, 1 for the second.

B9 and B10 are the same in “probability that this protein is enriched” value: 1 for the first, 1 for the second.

First: B11
Second: B12
The “probability that this protein is enriched” value of the first is higher: 0.88 for the first, 0.87 for the second.

Biological target: T1, APP-TAP-AICD
Assay: streptavidin purification of APP-TAP-AICD from brain homogenate; iTRAQ 116/114, transgenic mouse 75 vs control mouse 72; MALDI-TOF/TOF;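 also: relative protein abundance in the transgenic versus control pull-down, limited to proteins with high quality scores and above-average enrichment, without full normalization across the whole measurement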
Excerpt: Shown are all proteins that have high quality scores and are enriched above average in the m75 sample. Purified bait protein is given underlined. Other already known interaction partners of AICD or putatively biologically relevant proteins are given in bold. As full normalization over the entire measurement was not possible through the GPS explorer software suite, this conservative estimate had to be taken for determining the enriched vs. the non-enriched proteins. […] Ranking is in order of abundance ratio.

Going from B2 to B7, the iTRAQ ratio falls from 4.71 to 4.57.

Going from B9 to B10, the iTRAQ ratio falls from 4.87 to 4.61.
